Legend:
[1] = target: full length MMP-1 (human); assay: enzyme activity of pre-formed complexes against synthetic substrates; 10 nM [35S]TIMP-3 incubated with an equimolar concentration of metalloproteinase for 1 h at 37 °C; complex formation and stability over 24 h checked by activity
[2] = target: ADAMTS-5 (of the inhibition assays) (UniProt Q9UNA0); assay: enzyme inhibition kinetics (fluorogenic peptide substrates); apparent Ki; enzyme pre-incubated with TIMP-3 (0.5-100 nM) 1 h at 37 °C, equilibrium rate of substrate hydrolysis; TNC buffer (50 mM Tris-HCl pH 7.5, 150 mM NaCl, 10 mM CaCl2, 0.05% Brij-35, 0.02% NaN3), 37 °C; tight-binding equation

full length MMP-1 (human), sequence (P03956 100-469): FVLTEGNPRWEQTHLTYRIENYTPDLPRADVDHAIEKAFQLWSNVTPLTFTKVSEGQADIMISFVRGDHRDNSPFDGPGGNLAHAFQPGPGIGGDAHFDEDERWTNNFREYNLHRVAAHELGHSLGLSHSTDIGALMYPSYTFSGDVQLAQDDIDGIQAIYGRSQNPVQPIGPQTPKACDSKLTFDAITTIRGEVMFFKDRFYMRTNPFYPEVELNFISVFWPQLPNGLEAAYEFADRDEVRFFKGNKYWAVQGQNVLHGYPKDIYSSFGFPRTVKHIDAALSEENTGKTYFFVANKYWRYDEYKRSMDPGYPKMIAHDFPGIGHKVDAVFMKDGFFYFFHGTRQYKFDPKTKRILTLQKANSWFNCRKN

stoichiometry N [1]: 1
Ki [2]: 1.91 nM
B1: FLAG-tagged TIMP-3 (natural protein)
chain: CTCSPSHPQDAFCNSDIVIRAKVVGKKLVKEGPFGTLVYTIKQMKMYRGFTKMPHVQYIHTEASESLCGLKLEVNKYQYLLTGRVYDGKMYTGLCNFVERWDQLTLSQRKGLNYRYHLGCNCKIKSCYYLPCFVTSKNECLWTDMLSNFGYPGYQSKHYACIRQKGGYCSWYRGWAPPDKSIINATDP
